{"source": "paper PMC11842843", "about": "“Structural basis for malate-driven, pore lipid-regulated activation of the Arabidopsis vacuolar anion channel ALMT9” (Nature Communications, 2025)", "target": "the molecule itself", "assay": "cryo-EM structure; purified AtALMT9-sfGFP-HA-H10 in LMNG; three datasets (LMNG + CHS; LMNG + CHS + 10 mM malate; LMNG + 10 mM malate); 20 mM HEPES pH 7.6, 150 mM NaCl, 1 mM TCEP; nine lipid-bound classes", "data": [{"protein": "AtALMT9-superfolder GFP (sfGFP)-hemagglutinin (HA) tag-decahistidine (H10) tag (natural protein, Arabidopsis thaliana, UniProt Q9LS46 1-598, looked up, cloned into modified pACEBac2-sfGFP-HA-H10; No tag cleavage is described; The final models lack the flexible N-terminus, the C-terminus and two long loops (between H1 and H2, and between H5 and H6); also called ALMT9 from Arabidopsis thaliana; source: Sf9 cells (baculovirus), purified (TALON resin, Superdex 200 increase) in LMNG with or without CHS) MAAKQGSFRHGILEKRERLLSNNGFSDFRFTDIESNDLLENENCGRRTRLCCCCSCGNLSEKISGVYDDAKDVARKAWEMGVSDPRKIVFSAKIGLALTIVALLIFYQEPNPDLSRYSVWAILTVVVVFEFTIGATLSKGFNRALGTLSAGGLALGMAELSTLFGDWEEIFCTLSIFCIGFLATFMKLYPSMKAYEYGFRVFLLTYCYILISGFRTGQFIEVAISRFLLIALGAGVSLGVNMFIYPIWAGEDLHNLVVKNFMNVATSLEGCVNGYLRCLEYERIPSKILTYQASEDPVYKGYRSAVESTSQEESLMSFAIWEPPHGPYKSFNYPWKNYVKLSGALKHCAFTVMALHGCILSEIQAPEERRQVFRQELQRVGVEGAKLLRELGEKVKKMEKLGPVDLLFEVHLAAEELQHKIDKKSYLLVNSECWEIGNRATKESEPQELLSLEDSDPPENHAPPIYAFKSLSEAVLEIPPSWGEKNHREALNHRPTFSKQVSWPARLVLPPHLETTNGASPLVETTKTYESASALSLATFASLLIEFVARLQNVVDAFKELSQKANFKEPEIVTTGTDVEFSGERVGLGQKIRRCFGM", "values": [{"measurement": "stoichiometry N", "result": 2}]}]}
